B1: C1orf137 (parent)
chain: RQHHHQSSFPGSLPQETNLTLKVC

Variants of: B1
Assay: protein stability index of a GFP-peptide fusion (GPS, HEK-293T) (PSI 1-6); higher = more stable
Settings: c terminus: a fixed tail appended
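Also: lentivirally expressed fusions sorted by FACS into six bins by GFP to DsRed ratio, PSI derived from sequencing read proportions per bin multiplied by bin number.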

Protein stability index, by site and new letter:
T17: V 2.17 | S 3.02 | H 2.39 | C 2.46 | N 3.15 | D 3.89 | K 3.54 | Y 2.09 | R 3.28 | E 3.95 | G 3.28 | Q 3.24 | F 2.49 | A 2.87 | W 1.41 | L 1.57 | I 1.17
V23: N 3.34 | F 2.5 | L 3.03 | M 3.33 | I 2.46 | T 3.76 | P 3.79 | W 2.86 | A 3.78 | K 2.97 | S 3.73 | R 3.83 | Y 2.73 | Q 4.5 | G 4.43 | D 4.72 | H 4.2 | E 4.27 | C 3.41
L21: E 4.5 | Q 3.95 | D 4.43 | H 3.76 | K 3.79 | Y 3.96 | N 4.32 | W 3.08 | A 4 | M 3.79 | V 3.23 | G 4.36 | R 3.95 | S 4.02 | F 2.88 | I 2.41 | T 4.54 | C 3.97
L19: Y 2.95 | A 4.07 | I 3.39 | D 4.63 | P 3.31 | T 3.96 | Q 3.52 | N 3.49 | H 4.14 | K 3.99 | C 3.32 | W 4.19 | S 3.55 | F 2.47 | G 3.98 | E 4.34 | M 3.16
E16: C 1.47 | R 2.34 | M 2.48 | N 2.8 | S 2.63 | H 2.87 | T 2.69 | V 1.57 | Q 2.57 | W 1.55 | F 2.28 | D 3.63 | A 2.33 | Y 1.72 | L 1.7 | G 2.39 | I 1.75 | P 2.99 | K 2.57
Q15: Y 2.28 | V 2.6 | W 2.29
T20: Y 1.75 | W 2.18 | C 2.8 | V 2.42 | I 2.13 | E 3.61 | M 2.63 | L 2.32 | D 4.1 | Q 3.83 | F 2.09 | A 3 | R 3.36 | S 3.29 | N 3.16 | P 3.62 | K 2.64 | H 2.48 | G 3.23
C24: E 4.19 | Q 3.37 | L 3.74 | T 3.37 | H 3.37 | D 4.36 | S 3.41 | R 4.68 | K 4.11 | P 3.51 | V 2.29 | I 1.9 | N 3.7 | G 3.75 | Y 2.22 | M 2.44 | W 2.9 | A 3.64 | F 1.9
N18: T 2 | Q 3.66 | P 3.17 | L 2.2 | W 1.06 | I 2 | R 2.29 | Y 2.08 | D 3.83 | A 2.76 | K 2.89 | V 2.46 | G 3.65 | E 2.77 | M 2.51 | C 1.96 | H 1.84 | F 2.55 | S 2.65
K22: I 2.49 | E 3.44 | D 3.5 | M 2.28 | Q 2.92 | Y 2.28 | H 2.75 | C 1.75 | S 3.34 | G 3.42 | R 2.28 | F 2.14 | P 3.53 | A 2.57 | L 1.94 | T 2.43 | N 2.92
